Data as given in EP4692114A1, “CALCITONIN ANALOGUE, AND DERIVATIVE THEREOF AND USE THEREOF” (Hangzhou Sciwind Biosciences Co., Ltd., priority 2023, dated 2024).
*1 amine or outer side, *2 acyl side, *3 side chain or, on linkers, in order; H or OH if unused. Primed or numbered codes have the meaning given here. The star is where a group is joined. C22 diacid = O=C(O)CCCCCCCCCCCCCCCCCCCCC(=O)*; C20 diacid = O=C(O)CCCCCCCCCCCCCCCCCCC(=O)*; C18 diacid = O=C(O)CCCCCCCCCCCCCCCCC(=O)*; C16 diacid = O=C(O)CCCCCCCCCCCCCCC(=O)*; γGlu = O=C(O)[C@H](CCC(=O)[*:2])N[*:1]; Inp′ = not defined here; Trx′ = not defined here

T1: human amylin receptor (AMY3) on CHO-K1/Gal5/AMY3 cells (human, UniProt P30988 25-474; O60896 24-148)
T1 sequence (looked up) 1: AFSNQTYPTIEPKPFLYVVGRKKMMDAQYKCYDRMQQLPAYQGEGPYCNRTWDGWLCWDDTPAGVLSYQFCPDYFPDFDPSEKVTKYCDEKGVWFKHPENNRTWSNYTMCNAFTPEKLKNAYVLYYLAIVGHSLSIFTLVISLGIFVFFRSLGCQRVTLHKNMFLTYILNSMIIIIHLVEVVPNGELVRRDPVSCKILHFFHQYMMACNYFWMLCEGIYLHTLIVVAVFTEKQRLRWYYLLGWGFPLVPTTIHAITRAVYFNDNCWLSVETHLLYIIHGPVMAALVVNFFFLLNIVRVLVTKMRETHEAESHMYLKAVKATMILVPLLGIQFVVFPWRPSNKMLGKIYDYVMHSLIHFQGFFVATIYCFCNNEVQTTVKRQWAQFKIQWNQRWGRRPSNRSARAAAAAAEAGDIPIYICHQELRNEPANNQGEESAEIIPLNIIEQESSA
T1 sequence (looked up) 2: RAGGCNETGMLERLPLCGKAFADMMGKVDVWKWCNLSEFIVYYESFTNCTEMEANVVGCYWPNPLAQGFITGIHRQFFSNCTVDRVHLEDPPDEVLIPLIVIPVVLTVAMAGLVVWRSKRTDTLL

B1: calcitonin derivative M8 (peptide)
peptide: {C20 diacid-γGlu}-ASQLSTAVLGRLSDELHRLQDYPRTDVGSGSP-NH2
SMILES: CC(C)C[C@H](NC(=O)[C@H](CCCNC(=N)N)NC(=O)CNC(=O)[C@H](CC(C)C)NC(=O)[C@@H](NC(=O)[C@H](C)NC(=O)[C@@H](NC(=O)[C@H](CO)NC(=O)[C@H](CC(C)C)NC(=O)[C@H](CCC(N)=O)NC(=O)[C@H](CO)NC(=O)[C@H](C)NC(=O)CC[C@H](NC(=O)CCCCCCCCCCCCCCCCCCC(=O)O)C(=O)O)[C@@H](C)O)C(C)C)C(=O)N[C@@H](CO)C(=O)N[C@@H](CC(=O)O)C(=O)N[C@@H](CCC(=O)O)C(=O)N[C@@H](CC(C)C)C(=O)N[C@@H](Cc1c[nH]cn1)C(=O)N[C@@H](CCCNC(=N)N)C(=O)N[C@@H](CC(C)C)C(=O)N[C@@H](CCC(N)=O)C(=O)N[C@@H](CC(=O)O)C(=O)N[C@@H](Cc1ccc(O)cc1)C(=O)N1CCC[C@H]1C(=O)N[C@@H](CCCNC(=N)N)C(=O)N[C@H](C(=O)N[C@@H](CC(=O)O)C(=O)N[C@H](C(=O)NCC(=O)N[C@@H](CO)C(=O)NCC(=O)N[C@@H](CO)C(=O)N1CCC[C@H]1C(N)=O)C(C)C)[C@@H](C)O
B2: calcitonin derivative M40 (peptide)
peptide: {C16 diacid-γGlu}-ASQLSTAVLGRLSDELHRLQDYPRTDVGSGSP-NH2
SMILES: CC(C)C[C@H](NC(=O)[C@H](CCCNC(=N)N)NC(=O)CNC(=O)[C@H](CC(C)C)NC(=O)[C@@H](NC(=O)[C@H](C)NC(=O)[C@@H](NC(=O)[C@H](CO)NC(=O)[C@H](CC(C)C)NC(=O)[C@H](CCC(N)=O)NC(=O)[C@H](CO)NC(=O)[C@H](C)NC(=O)CC[C@H](NC(=O)CCCCCCCCCCCCCCC(=O)O)C(=O)O)[C@@H](C)O)C(C)C)C(=O)N[C@@H](CO)C(=O)N[C@@H](CC(=O)O)C(=O)N[C@@H](CCC(=O)O)C(=O)N[C@@H](CC(C)C)C(=O)N[C@@H](Cc1c[nH]cn1)C(=O)N[C@@H](CCCNC(=N)N)C(=O)N[C@@H](CC(C)C)C(=O)N[C@@H](CCC(N)=O)C(=O)N[C@@H](CC(=O)O)C(=O)N[C@@H](Cc1ccc(O)cc1)C(=O)N1CCC[C@H]1C(=O)N[C@@H](CCCNC(=N)N)C(=O)N[C@H](C(=O)N[C@@H](CC(=O)O)C(=O)N[C@H](C(=O)NCC(=O)N[C@@H](CO)C(=O)NCC(=O)N[C@@H](CO)C(=O)N1CCC[C@H]1C(N)=O)C(C)C)[C@@H](C)O
B3: calcitonin derivative M21 (peptide)
peptide: {C20 diacid-γGlu}-ASQLSTAVLGRLSQELHRLQDYPRTDVGSESP-NH2
SMILES: CC(C)C[C@H](NC(=O)[C@H](CCCNC(=N)N)NC(=O)CNC(=O)[C@H](CC(C)C)NC(=O)[C@@H](NC(=O)[C@H](C)NC(=O)[C@@H](NC(=O)[C@H](CO)NC(=O)[C@H](CC(C)C)NC(=O)[C@H](CCC(N)=O)NC(=O)[C@H](CO)NC(=O)[C@H](C)NC(=O)CC[C@H](NC(=O)CCCCCCCCCCCCCCCCCCC(=O)O)C(=O)O)[C@@H](C)O)C(C)C)C(=O)N[C@@H](CO)C(=O)N[C@@H](CCC(N)=O)C(=O)N[C@@H](CCC(=O)O)C(=O)N[C@@H](CC(C)C)C(=O)N[C@@H](Cc1c[nH]cn1)C(=O)N[C@@H](CCCNC(=N)N)C(=O)N[C@@H](CC(C)C)C(=O)N[C@@H](CCC(N)=O)C(=O)N[C@@H](CC(=O)O)C(=O)N[C@@H](Cc1ccc(O)cc1)C(=O)N1CCC[C@H]1C(=O)N[C@@H](CCCNC(=N)N)C(=O)N[C@H](C(=O)N[C@@H](CC(=O)O)C(=O)N[C@H](C(=O)NCC(=O)N[C@@H](CO)C(=O)N[C@@H](CCC(=O)O)C(=O)N[C@@H](CO)C(=O)N1CCC[C@H]1C(N)=O)C(C)C)[C@@H](C)O
B4: calcitonin derivative M39 (peptide)
peptide: {C18 diacid-γGlu}-ASQLSTAVLGRLSDELHRLQDYPRTDVGSGSP-NH2
SMILES: CC(C)C[C@H](NC(=O)[C@H](CCCNC(=N)N)NC(=O)CNC(=O)[C@H](CC(C)C)NC(=O)[C@@H](NC(=O)[C@H](C)NC(=O)[C@@H](NC(=O)[C@H](CO)NC(=O)[C@H](CC(C)C)NC(=O)[C@H](CCC(N)=O)NC(=O)[C@H](CO)NC(=O)[C@H](C)NC(=O)CC[C@H](NC(=O)CCCCCCCCCCCCCCCCC(=O)O)C(=O)O)[C@@H](C)O)C(C)C)C(=O)N[C@@H](CO)C(=O)N[C@@H](CC(=O)O)C(=O)N[C@@H](CCC(=O)O)C(=O)N[C@@H](CC(C)C)C(=O)N[C@@H](Cc1c[nH]cn1)C(=O)N[C@@H](CCCNC(=N)N)C(=O)N[C@@H](CC(C)C)C(=O)N[C@@H](CCC(N)=O)C(=O)N[C@@H](CC(=O)O)C(=O)N[C@@H](Cc1ccc(O)cc1)C(=O)N1CCC[C@H]1C(=O)N[C@@H](CCCNC(=N)N)C(=O)N[C@H](C(=O)N[C@@H](CC(=O)O)C(=O)N[C@H](C(=O)NCC(=O)N[C@@H](CO)C(=O)NCC(=O)N[C@@H](CO)C(=O)N1CCC[C@H]1C(N)=O)C(C)C)[C@@H](C)O
B5: calcitonin derivative M38 (peptide)
peptide: {C22 diacid-γGlu}-ASQLSTAVLGRLSDELHRLQDYPRTDVGSGSP-NH2
SMILES: CC(C)C[C@H](NC(=O)[C@H](CCCNC(=N)N)NC(=O)CNC(=O)[C@H](CC(C)C)NC(=O)[C@@H](NC(=O)[C@H](C)NC(=O)[C@@H](NC(=O)[C@H](CO)NC(=O)[C@H](CC(C)C)NC(=O)[C@H](CCC(N)=O)NC(=O)[C@H](CO)NC(=O)[C@H](C)NC(=O)CC[C@H](NC(=O)CCCCCCCCCCCCCCCCCCCCC(=O)O)C(=O)O)[C@@H](C)O)C(C)C)C(=O)N[C@@H](CO)C(=O)N[C@@H](CC(=O)O)C(=O)N[C@@H](CCC(=O)O)C(=O)N[C@@H](CC(C)C)C(=O)N[C@@H](Cc1c[nH]cn1)C(=O)N[C@@H](CCCNC(=N)N)C(=O)N[C@@H](CC(C)C)C(=O)N[C@@H](CCC(N)=O)C(=O)N[C@@H](CC(=O)O)C(=O)N[C@@H](Cc1ccc(O)cc1)C(=O)N1CCC[C@H]1C(=O)N[C@@H](CCCNC(=N)N)C(=O)N[C@H](C(=O)N[C@@H](CC(=O)O)C(=O)N[C@H](C(=O)NCC(=O)N[C@@H](CO)C(=O)NCC(=O)N[C@@H](CO)C(=O)N1CCC[C@H]1C(N)=O)C(C)C)[C@@H](C)O
B6: calcitonin derivative M23 (peptide)
peptide: {C18 diacid}-DASQLSTAVLGRLSQELHRLQDYPRTDVGSGSP-NH2
SMILES: CC(C)C[C@H](NC(=O)[C@H](CCCNC(=N)N)NC(=O)CNC(=O)[C@H](CC(C)C)NC(=O)[C@@H](NC(=O)[C@H](C)NC(=O)[C@@H](NC(=O)[C@H](CO)NC(=O)[C@H](CC(C)C)NC(=O)[C@H](CCC(N)=O)NC(=O)[C@H](CO)NC(=O)[C@H](C)NC(=O)[C@H](CC(=O)O)NC(=O)CCCCCCCCCCCCCCCCC(=O)O)[C@@H](C)O)C(C)C)C(=O)N[C@@H](CO)C(=O)N[C@@H](CCC(N)=O)C(=O)N[C@@H](CCC(=O)O)C(=O)N[C@@H](CC(C)C)C(=O)N[C@@H](Cc1c[nH]cn1)C(=O)N[C@@H](CCCNC(=N)N)C(=O)N[C@@H](CC(C)C)C(=O)N[C@@H](CCC(N)=O)C(=O)N[C@@H](CC(=O)O)C(=O)N[C@@H](Cc1ccc(O)cc1)C(=O)N1CCC[C@H]1C(=O)N[C@@H](CCCNC(=N)N)C(=O)N[C@H](C(=O)N[C@@H](CC(=O)O)C(=O)N[C@H](C(=O)NCC(=O)N[C@@H](CO)C(=O)NCC(=O)N[C@@H](CO)C(=O)N1CCC[C@H]1C(N)=O)C(C)C)[C@@H](C)O
B7: calcitonin derivative M55 (peptide)
peptide: {C20 diacid-Trx′}-ASQLSTAVLGRLSEELHRLQDYPRTDVGSGSP-NH2
modifications: reading uncertain
B8: calcitonin derivative M6 (peptide)
peptide: {C20 diacid-γGlu}-ASQLSTAVLGRLSQELHRLQDYPRTDVGSGSP-NH2
SMILES: CC(C)C[C@H](NC(=O)[C@H](CCCNC(=N)N)NC(=O)CNC(=O)[C@H](CC(C)C)NC(=O)[C@@H](NC(=O)[C@H](C)NC(=O)[C@@H](NC(=O)[C@H](CO)NC(=O)[C@H](CC(C)C)NC(=O)[C@H](CCC(N)=O)NC(=O)[C@H](CO)NC(=O)[C@H](C)NC(=O)CC[C@H](NC(=O)CCCCCCCCCCCCCCCCCCC(=O)O)C(=O)O)[C@@H](C)O)C(C)C)C(=O)N[C@@H](CO)C(=O)N[C@@H](CCC(N)=O)C(=O)N[C@@H](CCC(=O)O)C(=O)N[C@@H](CC(C)C)C(=O)N[C@@H](Cc1c[nH]cn1)C(=O)N[C@@H](CCCNC(=N)N)C(=O)N[C@@H](CC(C)C)C(=O)N[C@@H](CCC(N)=O)C(=O)N[C@@H](CC(=O)O)C(=O)N[C@@H](Cc1ccc(O)cc1)C(=O)N1CCC[C@H]1C(=O)N[C@@H](CCCNC(=N)N)C(=O)N[C@H](C(=O)N[C@@H](CC(=O)O)C(=O)N[C@H](C(=O)NCC(=O)N[C@@H](CO)C(=O)NCC(=O)N[C@@H](CO)C(=O)N1CCC[C@H]1C(N)=O)C(C)C)[C@@H](C)O
B9: calcitonin derivative M56 (peptide)
peptide: {C20 diacid-Inp′}-ASQLSTAVLGRLSEELHRLQDYPRTDVGSGSP-NH2

Molecular target: T1, human amylin receptor (AMY3) on …
Experiment: cell-based or functional assay

EC50/nM, CRE-luciferase in amylin receptor/CRE-luc CHO cells [nM]	Binder
0.017	B1
0.002	B2
0.017	B3
0.016	B4
0.022	B5
0.01	B6
0.017	B7
0.017	B8
0.017	B9
